# Test results published in patent publication US20230391865A1 (University of California, published 2023).
# B1: Anti-TSPAN3 M3 clone monoclonal antibody (antibody, V domains shown)
# VH: QIQLVQSGPELKKPGETVKISCKASGYTFTTYGMSWVKQAPGKGLKWMGWINTYSGVPTYADDFKGRFAFSLETSASTAYLQINNLKNEDTATYFCARSHYSNFYAMDYWGQEPQSP
# VL: DIVMTQSHKFMSTSVGDRVSITCKASQDVGTAVAWYQQKPGQSPKLLIYWASTRHTGVPDRFTGSGSGTDFTLTISNVQSEDLADYFCQQYSSYPLTFGAGTKLELK
# notes: Mouse hybridoma clone; isotype IgM, kappa; also called Clone 3 (TSPAN3-C - M3)
# B2: Anti-TSPAN3 M5 clone monoclonal antibody (antibody, IgG2b, V domains shown)
# VH: EVQLQQSGPELVKPGASVKMSCKASGYTFTDFYMHWVKQSHGRSLEWIGYIYPHNGFTKYNQSFMGKATLTVNKSSNTAYMELRSLTSEDSAVYYCARRYGDYWGQGISVTVSS
# VL: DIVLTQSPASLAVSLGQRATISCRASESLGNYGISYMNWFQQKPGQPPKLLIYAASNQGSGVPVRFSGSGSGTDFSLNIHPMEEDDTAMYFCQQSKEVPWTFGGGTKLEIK
# notes: Mouse hybridoma clone; isotype IgG2b, kappa; also called Clone 5 (TSPAN3-C - M5)
# B3: Anti-TSPAN3 M6 clone monoclonal antibody (antibody, IgG2b, V domains shown)
# VH: B2 VH
# VL: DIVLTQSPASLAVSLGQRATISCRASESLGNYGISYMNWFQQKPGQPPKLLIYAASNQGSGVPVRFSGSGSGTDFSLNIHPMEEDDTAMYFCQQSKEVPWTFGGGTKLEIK
# notes: Mouse hybridoma clone; isotype IgG2b, kappa; also called Clone 6 (TSPAN3-C - M6)
# B4: Anti-TSPAN3 M1 clone monoclonal antibody (antibody, IgG1, V domains shown)
# VH: QVQLQQPGAELVKPGASVKLSCKASGYTFTSYWMHWVKQRPGQGLEWIGMIHPNSGSPNYNERFKSKATLTVDKSSSTAYMQLSSLTSEDSAVYFCARWGDGYHRYFDVWGTGTTVTVSS
# VL: DIQMTQSPASLSASVGETVTITCRASGNIHNYLAWYQQKQGKSPQLLVYNAKTLADGVPSRFSGSGSGTQYSLKINSLQPEDFGSYYCQHFWSTPPYTFGGGTKLEIK
# notes: Mouse hybridoma clone (CD-1 library); isotype IgG1, kappa; also called Clone 1 (TSPAN3-C - M1)
# Biological target: T1, human Tetraspanin-3 (TSPAN3) (human, UniProt O60637 1-253)
# T1 construct: whole, on cells; also called human TSPAN3; cell surface expressed TSPAN3
# Assay: flow cytometry (FACS) on TSPAN3-expressing cells
# Excerpt: Using the hybridoma technology, i.e., fusing the antibody-producing B-cells harvested from the immunized mice with myeloma cells, two hybridoma fusion libraries were generated three days later (one from the reactive NZBW mouse and one from the two pooled reactive CD-1 mice), and then retested for reactivity to surface-expressed human TSPAN3.
# T1 sequence (O60637 whole entry): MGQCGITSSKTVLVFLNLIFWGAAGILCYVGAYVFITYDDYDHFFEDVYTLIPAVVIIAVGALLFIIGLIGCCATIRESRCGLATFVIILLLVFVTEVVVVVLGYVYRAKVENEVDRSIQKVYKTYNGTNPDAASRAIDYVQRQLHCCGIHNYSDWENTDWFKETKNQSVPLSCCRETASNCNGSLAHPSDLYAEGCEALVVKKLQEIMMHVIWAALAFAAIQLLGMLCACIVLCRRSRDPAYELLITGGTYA
Binder,% Gated [%],Median Fluorescence Intensity (MFI)
B1,60.7,284
B2,73,529
B3,69.5,308
B4,59,290
